Tests used:
HL-60 cells = test: Mouse AML model, HL-60 cells injected intravenously; assay type: in vivo, mice; details: q4d×5, ip, FIG. 24
Procedure: Mice were implanted with an AML cell line, HL-60, as follows: 5 million HL-60 cells were injected intravenously. The mice were treated with lintuzumab (10 mg/kg, q4d×4, ip), cytarabine (1 mg/kg, 5 mg/kg or 25 mg/kg, q1d×10, or 50 mg/kg or 100 mg/kg, q2d×5, ip) or lintuzumab with cytarabine (dosed as described previously). Treatment began on day one.
To confirm the data of the in vitro study, mice were implanted with an AML cell line, HL-60, as follows: 5 million HL-60 cells were injected intravenously. […] Treatment began on day one.

CD33 = CD33 (Homo sapiens, UniProt P20138); test: Recruitment of SHP phosphatases / Syk to CD33 in HL-60 cells (immunoprecipitation, Western blot); assay type: cell-based; parameters: endogenous in cells; host or cells: HL-60 (ATCC); primary human CD14+ monocytes (Cambrex); macrophages derived from human PBMCs
Procedure: To determine whether the humanized M195 antibody also recruits SHP phosphatases, HL-60 cells were treated with soluble or cross-linked anti-CD33 antibodies. Cell extracts were prepared and CD33 was immunoprecipitated with an anti-CD33 antibody (MY9 clone). Western blotting was performed with an anti-SHP-1 antibody (sc-287; Santa Cruz Biotechnology, Inc., Santa Cruz, Calif.).

Chain of CD33 (P20138 18-364): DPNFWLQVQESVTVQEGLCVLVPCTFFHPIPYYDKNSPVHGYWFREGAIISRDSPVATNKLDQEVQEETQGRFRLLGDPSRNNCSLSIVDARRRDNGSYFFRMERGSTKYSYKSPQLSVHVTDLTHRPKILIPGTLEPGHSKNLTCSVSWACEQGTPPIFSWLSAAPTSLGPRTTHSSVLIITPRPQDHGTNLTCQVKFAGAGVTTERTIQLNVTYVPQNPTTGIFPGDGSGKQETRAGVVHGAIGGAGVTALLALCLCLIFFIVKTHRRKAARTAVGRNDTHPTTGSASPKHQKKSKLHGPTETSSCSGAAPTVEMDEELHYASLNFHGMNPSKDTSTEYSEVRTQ

With “SGN-33: anti-CD33 antibody, a humanized version of mouse monoclonal antibody M195” the survival rate (HL-60 cells; SGN-33 30 mg/kg) was ~85%, the survival rate (HL-60 cells; SGN-33 3 or 10 mg/kg) was ~50% and the “recruitment of SHP-2” value (CD33; data not shown) was “did not recruit”. For the same substance, the “recruitment of Syk” value (CD33; data not shown) was “did not recruit” and the “recruitment of SHP-1 to CD33” value (CD33; soluble or cross-linked antibody, FIG. 3) was “recruited SHP-1 to CD33”.
